Consider 1 substance from patent US20060166191A1.

This assay has as its target wild-type Gag expressed from the full-length proviral construct pNL4-3 (HIV-1) (UniProt P12493). As to the kind of experiment: cell-based or functional assay.

Regarding “AP3D-5′, AP3 δ subunit residues 1-742 (from UniProt O14617 1-742)”, the cells with particle budding among 100 consecutive 293T cells (thin-section electron microscopy), NL4-3 with AP3D-5′ was 0 cells of 100.
